# Source: PMC7018998
# Columns and labels:
# ErbB2 [1] = molecular target: ErbB2 (UniProt P04626); assay: two-colour single molecule co-localisation and tracking (TOCCSL, TIR microscopy); live CHO-ErbB2-ErbB3 cells; AF488-ErbB3-Fab and AF647-ErbB3-Fab for homodimers, AF488-ErbB2-Fab and AF647-ErbB3-Fab for heterodimers; with 200 ng/mL (25 nM) HRG, no pertuzumab; room temperature; settings: other: two-colour single molecule co-localisation and tracking (TOCCSL, TIR microscopy)
# ErbB2 [2] = molecular target: ErbB2 (UniProt P04626); assay: two-colour single molecule co-localisation and tracking (TOCCSL, TIR microscopy); live CHO-ErbB2-ErbB3 cells; AF488-ErbB3-Fab and AF647-ErbB3-Fab for homodimers, AF488-ErbB2-Fab and AF647-ErbB3-Fab for heterodimers; no HRG, no pertuzumab; room temperature; settings: other: two-colour single molecule co-localisation and tracking (TOCCSL, TIR microscopy)
# Chain of ErbB3 (chain): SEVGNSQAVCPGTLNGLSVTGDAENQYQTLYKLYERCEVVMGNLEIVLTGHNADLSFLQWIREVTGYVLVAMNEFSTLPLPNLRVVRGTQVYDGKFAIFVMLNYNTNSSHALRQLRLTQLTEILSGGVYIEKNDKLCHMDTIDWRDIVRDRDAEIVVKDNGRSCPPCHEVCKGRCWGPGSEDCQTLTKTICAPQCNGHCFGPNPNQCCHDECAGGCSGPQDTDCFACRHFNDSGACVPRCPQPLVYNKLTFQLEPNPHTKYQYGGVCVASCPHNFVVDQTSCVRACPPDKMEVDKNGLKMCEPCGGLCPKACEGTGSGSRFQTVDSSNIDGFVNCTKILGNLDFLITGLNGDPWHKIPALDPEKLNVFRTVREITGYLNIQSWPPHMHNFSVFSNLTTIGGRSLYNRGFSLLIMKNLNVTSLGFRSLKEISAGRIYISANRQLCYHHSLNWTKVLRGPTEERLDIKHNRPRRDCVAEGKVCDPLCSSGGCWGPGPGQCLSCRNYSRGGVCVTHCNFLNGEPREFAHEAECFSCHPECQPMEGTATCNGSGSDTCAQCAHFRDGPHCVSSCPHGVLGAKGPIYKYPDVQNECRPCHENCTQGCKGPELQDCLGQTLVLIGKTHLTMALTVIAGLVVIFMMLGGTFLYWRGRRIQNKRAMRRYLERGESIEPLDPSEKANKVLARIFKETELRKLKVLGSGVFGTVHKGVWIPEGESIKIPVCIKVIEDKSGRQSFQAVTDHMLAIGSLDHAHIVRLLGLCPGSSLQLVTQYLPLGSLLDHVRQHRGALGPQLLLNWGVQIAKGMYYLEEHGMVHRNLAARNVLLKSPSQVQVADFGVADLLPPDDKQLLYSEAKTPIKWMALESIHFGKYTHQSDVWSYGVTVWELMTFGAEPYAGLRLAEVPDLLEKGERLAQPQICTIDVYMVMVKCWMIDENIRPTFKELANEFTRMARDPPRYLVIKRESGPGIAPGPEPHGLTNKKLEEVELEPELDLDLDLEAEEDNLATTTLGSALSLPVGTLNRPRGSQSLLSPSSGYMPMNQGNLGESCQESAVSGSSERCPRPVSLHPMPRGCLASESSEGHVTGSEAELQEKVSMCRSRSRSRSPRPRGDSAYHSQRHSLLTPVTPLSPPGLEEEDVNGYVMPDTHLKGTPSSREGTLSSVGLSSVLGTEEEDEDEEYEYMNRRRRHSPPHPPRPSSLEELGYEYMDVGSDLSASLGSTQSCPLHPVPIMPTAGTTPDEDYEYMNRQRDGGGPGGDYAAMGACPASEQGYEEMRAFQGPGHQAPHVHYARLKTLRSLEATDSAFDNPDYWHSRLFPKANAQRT
substance,measurement,setting,value
ErbB3,percent of ErbB3 in ErbB3/ErbB2 heterodimers,ErbB2 [1],a further increase of ErbB3/ErbB2 heterodimerization (∼90%
same,percent of ErbB3 in ErbB3/ErbB2 heterodimers,ErbB2 [2],∼70% of ErbB3 being associated to ErbB3/ErbB2 heterodimers
